Reference: US20140286859A1 (published 2014)
“And” between values parts separate entries of the source, which are not always exact repeats. Identical values can stand only once.

Target: recombinant soluble PSMA (rsPSMA) (human, UniProt Q04609 44-750)
Sequence (Q04609 44-750): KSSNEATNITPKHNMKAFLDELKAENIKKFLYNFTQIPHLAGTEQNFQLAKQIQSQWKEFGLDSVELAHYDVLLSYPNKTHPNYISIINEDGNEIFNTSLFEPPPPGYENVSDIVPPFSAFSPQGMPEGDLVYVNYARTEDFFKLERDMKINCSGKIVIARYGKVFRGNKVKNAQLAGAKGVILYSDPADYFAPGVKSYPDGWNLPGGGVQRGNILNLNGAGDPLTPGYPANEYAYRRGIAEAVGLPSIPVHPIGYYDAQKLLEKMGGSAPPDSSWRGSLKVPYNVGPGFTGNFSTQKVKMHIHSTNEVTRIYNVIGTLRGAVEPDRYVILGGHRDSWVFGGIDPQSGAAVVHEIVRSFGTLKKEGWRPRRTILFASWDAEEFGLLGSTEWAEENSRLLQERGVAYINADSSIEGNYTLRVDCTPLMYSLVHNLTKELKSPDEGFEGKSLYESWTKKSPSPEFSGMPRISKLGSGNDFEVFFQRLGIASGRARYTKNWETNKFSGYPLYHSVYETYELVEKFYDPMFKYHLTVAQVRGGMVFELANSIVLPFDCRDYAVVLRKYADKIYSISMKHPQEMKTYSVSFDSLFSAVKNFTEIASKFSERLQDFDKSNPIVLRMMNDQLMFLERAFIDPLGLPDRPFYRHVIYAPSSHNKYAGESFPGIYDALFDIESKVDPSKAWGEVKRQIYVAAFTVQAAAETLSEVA

B1: PSMA 10.3 (antibody, V domains shown)
VH: QEQLVESGGGVVQPGRSLRLSCAASGFTFSTYGMHWVRQAPGKGLEWVAVTWHDGSNKYYADSVKGRFTISRDNSKNTLYLQMNSLRAEDTAVYYCARGGVGATYYYYYGMDVWGQGTTVTVSS
VL: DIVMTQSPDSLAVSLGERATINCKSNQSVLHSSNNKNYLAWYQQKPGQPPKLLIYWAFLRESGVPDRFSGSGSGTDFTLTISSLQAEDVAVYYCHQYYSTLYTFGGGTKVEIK
For B1, the koff was 6.32e-05 s⁻¹ and 6.43e-05 s⁻¹.
